Assay results as given in the supplement of paper PMC9170038.

Tested on: MS2 coat protein
Test: apparent KD of MS2 coat protein; higher = weaker reporter binding
Conditions: Eterna round: R107
Procedure, shortened: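 Designed RNA switches were transcribed on-chip from Illumina sequencing clusters. They were then titrated with SNAP-549-labelled MS2 coat protein (twofold steps, 0.7 or 1.5 nM to 3 µM; 0.8–1.5 h to 10–20 min per step) in 100 mM Tris-HCl pH 7.5, 80 mM KCl, 4 mM MgCl2, without or with constant ligand. Apparent KD is the per-design median of normalised cluster binding-curve fits.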

[1] = input ligand: theophylline 20 uM
[2] = input ligand: theophylline 2 mM
[3] = input ligand: tryptophan 2.4 mM

Sequence	apparent KD of MS2 coat protein (input ligand: arginine 13.2 mM) [nM]	apparent KD of MS2 coat protein [1] [nM]	apparent KD of MS2 coat protein [2] [nM]	apparent KD of MS2 coat protein (input ligand: none) [nM]	apparent KD of MS2 coat protein [3] [nM]
CGAGUGAGUUCAAUCGAAUAACGGUUUUCGCGAGGACCGGUACGGCCGCCACUCGUGUGAUAUCACACAUGAGGAUCACCCAUGU [3'end-1]	34.7	49	63.4		
GCUAGUGGCAGAAGGAGCGGCAUACAUGCAAGUGACAUGAGGAUCACCCAUGUAAGGGAAUGCCAGGUAGGUCGCUGCCACUAGC [EAB NP+V+V2 #2 +-Same Structure]	36.2	89.6	89.2	61.5	64.2
CUCCCUUCGGCGGCCGCCACUAACAGUUUAAUGGACUUUCGGGUCCACAUGAGGAUCACCCAUGUUAGGACCGGGCCCUUGCUCU [theeternabot_exclusion_MS2_Trp_B_39]	8.8	17.5	10.6	9.2	10.9
GCACCAGGUACGGAUACCAGCUAUAGGUACAUGUCAGGACAUGAGGAUCACCCAUGUGGUAGCCCUUGGCAGCUGUACCUGGUGC [EThB NP+V+V2 #2]	18.5	26.3			19.1
AUUAAAGUUUAUAAGGAAAUUGAAACAGAAGGAGCGUGAGUAAUCACAGGUAGGUCGCUGGUAGUACAUGAGGAUCACCCAUGUU [JR_Nu_SSArginiA_Sub020]	22.2	30.6	24.2	20.1	21.3
GGGCGCUAUCCCGCGAGGGAUAGCGUUCGUCGAGGACCGGUACGGCCGCCACUCGAACGAGUGGUGACAUGAGGAUCACCCAUGU [Oaa]	39	55.2	55.7		
UAAUCCGGUCCUCGAUAAUCCUCAUGUAAACGAGGACCGGUACGGCCGCCACUCGAUAACAUGAGGAUCACCCAUGUAAUAAUAA [|T'-M'-Trp-Ms2|_Design14]	47.5	88.3	82.2		
ACGUCCGGGUUAAUCGUGGGCAUGGUCGAUACCAGUAUUUUAAUCUACCCUUGGCAGCGACAUGAGGAUCACCCAUGUGCGAUGA [XTheo A #17]	15.5	22.8			17
UUUGCACAUGAGGAUCACCCAUGUACAGAUACCAGCCUCAUCUACGGCCCUUGGCAGCUGAGACAAUGGUGACGUGAUGGGCUUU [Iserraxeso]	12.9	14.7			11.8
CGAAUAUAGACGGCCGCCACUCUACAAACAUGAGGAUCACCCAUGUUCACAUAGUGGAAACACAUGAGGACCGGGUCAUAGGCUU [#19 Same State - Tryptophan B]	23.2	26.9	23.9		
CCGUCACAUGAGGAUCACCCAUGUGCGGAAGGAGCGGACGAAAGUCCAGGUAGGUCGCCGUAUAGCCAAUGACCAGCAGUGUCGG [XARG-A 21]	12.1	15.4	14.8	12.6	14.4
AGCCACUCGAGUGAUCCUCACGAGUGGCAACGAGGACCGGUACGGCCGCCACUCGAAUCAACAUGAGGAUCACCCAUGUAAUAAU [Brourdmod01]	28.2	123	82.3	76.3	97.7
AGAGCAUUGACGGCCGCCACUCAUGUCACAUGAGGAUCACCCAUGUGAUGGGUAAUUGCCCGGUUGAGGACCGGGUCAAUGCUCA [Omei Tryp SS B v4]	5.88	11.3	10.1	8.32	9.74
AGCCAUGGAAACAUGGCGGCGGCAUGAGCGCGAGGACCGGUACGGCCGCCACUCGGGCGACAUGAGGAUCACCCAUGUUCCUCAU [ETA NP+V+V2 #22 Same Structure]	145	312	451	289	422
CCAUGCAGGUCGGCCGCCACUACACACAUGAGGAUCACCCAUGUAGUUACUGGGUGAAGUGGCAGUAGGACCGGGACCUGCAUAC [Brourdmod12]	78.2	459	540	341	395
AAAACACAUGAGGAUCACCCAUGUCGUGAUACCAGUCAACAUGAGGACCCUUGGCAGCAUAAAAUGGGUAACAUGAGGAUCACCC [AstrosEXyTheA#5]	65.3	118			90.9
UGGUACAUGGCGGCCGCCACUGGGUUGAAAACCUGAGGAUCACCCUGGUAAAACGCGAAAGCGACUAGGACCGGGUCAUGUACCU	167	891	787	573	70.5
UACCGAUGAAGAAGGAGCGUACGUGGUUCACAUGAGGAUCACCCAUGUGCUUAUUGCUAGGUACAGGUAGGUCGCUUCAUCGGUA [SSAB NP+V+V2 #21]	16.5	21	17.1	15.5	15.8
GACAUGAGGAUCACCCAUGUACCGCGAGAAGGAGCGCGGAUAAACGCAGGUAGGUCGCUCGUGGGCUUACAUUCAAGUGUAAGCU [Usarat]	49	143	118	106	31.3

Sequence	apparent KD of MS2 coat protein (input ligand: arginine 13.2 mM) [nM]	apparent KD of MS2 coat protein [1] [nM]	apparent KD of MS2 coat protein [2] [nM]	apparent KD of MS2 coat protein (input ligand: none) [nM]	apparent KD of MS2 coat protein [3] [nM]
UACGUGGAUGCGGCCGCCACUGCUCUGAGCGAGUUGCUCUAUGGACAUGAGGAUCACCCAUGUCACAGGACCGGGCACGCUUUAA [theeternabot_sameState_MS2_Trp_B_50]	9.14	11.9	10.6		
AGUUGACAAAAGUCAGCAACAUGAUCCGAAGGAGCGGGCGAAAGCCCAGGUAGGUCGCGGACAUGAGGAUCACCCAUGUCUCCUU [ArgAX 3 #OpenEnded #Sliding]	46.6	70.6	100	74.3	63.9
GCGGUACGUACUGAUACCAGAGACAUGAGGAUCACCCAUGUCCCAUGGUCAUGCCUCAGACUCCCUUGGCAGCAGGAUAAGUGCG [Exclusion Theophylline B GF3]	14.3	17.1	40.4	13.9	12.8
UACCCAUAGGGAAGGAGCGCGCUAACAUGAGGAUCACCCAUGUAAAGGGUUUCUGGCUUAGCGCAGGUAGGUCGCCCUAUGGGUA [#10 Exclusion - Arginine B]	196	400	1050	238	654
AUCUAUAGAGCGGCCGCCACUGAAUACAUGAGGAUCACCCAUGUAAUGUUAAGGUGGUCCUAGCUCAGGACCGGGCUCUAUAGAU [Tryp B Ex t4]	30	60.6	53.3		
AACAUACAGUUUUAGGUGGAUAUAAGGCGGCGAGGACCGGUACGGCCGCCACUCGCGUACAUGAGGAUCACCCAUGUCUGAAGCU [Same State - Tryptophan A (Freestyle 7)]	24.4	59.2	86.9		
CCUCACAUGAGGAUCACCCAUGUCUUUACACGAGGACCGGUACGGCCGCCACUCGUUCACAAAACAACCAGAAGUGAUGCCUACA [theeternabot_sameState_MS2_Trp_A_14]	80.2	183	214		
ACCUGUACGAAAAGUGCAGGACACGGAAUACGAGGACCGGUACGGCCGCCACUCGGAAUAAACCUGAGGAUCACCCUGGUCCGUG [TrypAS 9 #AlternativeMS2 #Zipper #StaticStem]	26.8	39.1	34.4	25.1	32.2
GUUUUAUACUCGGCCGCCACUGAGAGAGUCAUGUAAACAUGAGGAUCACCCAUGUAAUAUAUAUACAGGACCGGGAGUAGGGUAA [4.F]	10.1	16.1	12.2		
UCGUAGGUAGGAAGGAGCGCAUACUUCACAUGAGGAUCACCCAUGUCGAGACGUGAGUCAGUGCAGGUAGGUCGCCUAGCUAUGA [Same State - Arginine B (Freestyle 25)]	18.2	35.7	28.3	26	18.7
UUAACGAGCUGAAGGAGCGCUCUUCAUCAACAUGAGGAUCACCCAUGUACACAUAAUAGGGAGCAGGUAGGUCGCAGCGGGAUGG [#24 Same State - Arginine B]	14.2	24.8	17.4	16.2	17.2
GCAUCCUAGUCGGCCGCCACUGCAUGUAGGCAGUGCUGCUACAAACAUGAGGAUCACCCAUGUAGCAGGACCGGGACUAGGAUGC [(Trp1)-(MT2)''-(T1)'-(MT2)'-(Ms2)-(Trp2)_Design2]	13	18.5	15.6		
AACAGGGCUUCCACGAAGCCCUAAGGUGAUACCAGCACAUGUAAGUGCCCUUGGCAGCACGGUACAUGAGGAUCACCCAUGUAGA [Gerara]	19.9	237			24.3
UCUUUCUUUGUAGAUACCAGCAUGUUAAGUUUCUUUUGACAUGAGGAUCACCCAUGUACAUGCCCUUGGCAGCUACAUUUUCUUU [SSThB NP+V+V2 Same Structure]	15.6	16.3			15.4
CCUCAUGUGUAUCACCACAUGAGUGGUGAUACCAGCAUCGAAAGAUGCCCUUGGCAGCACCAACAUGAGGAUCACCCAUGUAAUA [(M)'-(T)'-(M)''-(T1)-(T2)-(M1)-(M2)_Design2]	60.3	284			287
AGGAAUGUCACGGCCGCCACUGACGCUAAAAUGGGCUCGAGCCGACAUGAGGAUCACCCAUGUUCCAGGACCGGGUGAAUCCUGG [theeternabot_sameState_MS2_Trp_B_40]	102	154	299		
AGGGACAUGAGGAUCACCCAUGUUGAAACUCGAGGACCGGUACGGCCGCCACUCGUAUAAUCGAUGUCCAUUUGGGAUUCCGGCU [theeternabot_sameState_MS2_Trp_A_17]	21.4	32.8	39		
UUCUGGUCCCGUGAUACCAGAGACAUGAGGAUCACCCAUGUACAUGAGGAUCACCCAUGUUUCCCUUGGCAGCACUGUAGGGAGC [Exclusion Theophylline B GF 16]	79.9	226			207
